Data on one molecule can be found in paper PMC2635961.

The assay has as its target each recombinant exocyst subunit. Nature of the assay: pull-down; MBP or MBP-tagged proteins immobilised on amylose resin; equimolar purified Sec10(145–827) (1 µM) added; 10 mM HEPES pH 7, 100 mM NaCl, 0.1% NP-40, 1 mM DTT; 1 h at 4°C; three washes; Western blot with α-His5 and α-MBP. A general note: Immunoblotting shows a protein as a band on a membrane.

B1: Sec10(145–827) (domain or fragment)
chain: GDKLETAIKKKQNYIQSVELIRRYNDFYSMGKSDIVEQLRLSKNWKLNLKSVKLMKNLLILSSKLETSSIPKTINTKLVIEKYSEMMENELLENFNSAYRENNFTKLNEIAIILNNFNGGVNVIQSFINQHDYFIDTKQIDLENEFENVFIKNVKFKEQLIDFENHSVIIETSMQNLINDVETVIKNESKIVKRVFEEKATHVIQLFIQRVFAQKIEPRFEVLLRNSLSISNLAYVRILHGLFTLFGKFTKSLIDYFQLLEIDDSNQILSTTLEQCFADLFSHYLYDRSKYFGIEKRSLEAILVDMTSKFTVNYDKEINKRVLLDKYKEKLSTNVDAFMHSPRGNTHSRQDSTSRSKLSQFNSFLKTHLDKDHLSLNRTNTLSDSFNNSSSSTQYDVANNSSSLVNSSFTASDIDNSPNSPANYSLNDVDSMLKCVVESTARVMELIPNKAHLYILEILKIMFLGIVDSYMEIALEVAYWKICKVDINKTAGVVNLNFLKFISMSTEILDLLSISIKSIFLPLLNNSPEIKAQIIEMTNSQIQKMEILINIILQETITVISTKFSAILCKQKKKDFVPKSQELLDQDTLPAIEIVNILNLIFEQSSKFLKGKNLQTFLTLIGEELYGLLLSHYSHFQVNSIGGVVVTKDIIGYQTAIEDWGVASLIDKFATLRELANLFTVQP
With B1, the percent bound lay within 10 to 20%.
